Results published in patent US20220033501A1 (SHANGHAI PHARMAEXPLORER, published 2022).
Changes are numbered by the printed parent chain.

T1: monkey TIM-3 on CHOK1 stable cell line (CHOK1-cTIM-3) (monkey)
T1 chain: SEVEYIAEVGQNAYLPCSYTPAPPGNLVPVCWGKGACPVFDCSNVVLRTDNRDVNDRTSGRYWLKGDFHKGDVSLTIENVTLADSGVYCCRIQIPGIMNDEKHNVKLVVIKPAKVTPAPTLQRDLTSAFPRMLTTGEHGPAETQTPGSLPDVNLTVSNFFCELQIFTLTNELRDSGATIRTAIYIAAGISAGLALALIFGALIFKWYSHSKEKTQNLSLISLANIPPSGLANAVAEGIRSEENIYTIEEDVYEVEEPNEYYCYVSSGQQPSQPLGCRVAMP

T2: human TIM-3 extracellular domain protein with hFc tag (hTIM-3-hFc) (human, UniProt Q8TDQ0 22-200)
T2 construct: not shown: human IgG Fc fragment (hFc) of the pCpC vector
T2 sequence: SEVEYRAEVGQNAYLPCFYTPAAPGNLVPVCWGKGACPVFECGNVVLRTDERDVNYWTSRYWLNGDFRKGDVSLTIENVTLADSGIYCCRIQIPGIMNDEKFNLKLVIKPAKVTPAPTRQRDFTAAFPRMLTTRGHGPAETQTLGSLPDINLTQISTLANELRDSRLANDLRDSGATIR

T3: murine TIM-3 extracellular domain protein with hFc tag (mTIM-3-hFc) (mouse, UniProt Q8VIM0 29-191)
T3 construct: also called mouse TIM-3 extracellular domain protein; not shown: human IgG Fc fragment (hFc) of the pCpC vector
T3 chain: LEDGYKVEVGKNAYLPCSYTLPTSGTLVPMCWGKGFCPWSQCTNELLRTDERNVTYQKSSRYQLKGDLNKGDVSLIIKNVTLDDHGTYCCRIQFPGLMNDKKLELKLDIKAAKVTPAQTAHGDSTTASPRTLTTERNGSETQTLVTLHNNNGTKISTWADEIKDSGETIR

B1: 18D2H2 fully human TIM-3 antibody (human IgG4, kappa) (antibody, V domains shown)
VH: EVQLVESGGDLVQPGGSLRLSCAASGFTFSTYWMTWVRQAPGRGLEWVANIKQDGSAKYYVDSVKGRFTLSRDDAKNSLYLQMNSLRAEDTAVYYCARGSNWFDYWGQGTLVTVSS
VL: ETVMTQSPATLSVSPGERATLSCRANQNVYSNLAWYQQKPGQAPRLLIYDASTRATGFPARFSGSGSGTEFTLTISSLQSEDFAVYYCQQYNNWPLTFGGGTKVEIK
B2: 34B6D8 fully human TIM-3 antibody (human IgG4, kappa) (antibody, V domains shown)
VH: B1 VH with D10G, R43K, G44R, D54G, S56G, A57D, L70I, R72T, D74N, Y105P
VL: EIVMTQSPATLSMSPGERATLSCRASQSVYDNLAWYQQKPGQAPRLLIYGASTRATGIPARFSGSGSGTEFTLTISSLQSEDFALYYCQQYTHWPITFGQGTRLEIK
B3: 39E5H1 fully human TIM-3 antibody (human IgG4, kappa) (antibody, V domains shown)
VH: EVQLVESGGGLVQPGGSLRLSCAASGFTFSSYWMSWVRQAPGKGLEWVANIKRGGSERYYVDSVKGRFTISGDNAKNSVYLQMNSLRAEDTAVYYCARGSNWFDPWGQGTLVTVSS
VL: B2 VL with I2T, T10I, M13V, D31S, P40L, G50D, L85V, T92N, H93N

Columns and labels:
[1] = target: T1, monkey TIM-3 on CHOK1 stable cell line …; assay: FACS, CHOK1-cTIM-3 cells, 0.064 nM antibody
[2] = target: T2, human TIM-3 extracellular domain …; assay: ELISA, coated human TIM-3 ECD protein, 0.0067 nM antibody
[3] = target: T3, murine TIM-3 extracellular domain …; assay: ELISA, coated mouse TIM-3 ECD protein, 0.0007 nM antibody
[4] = target: T3, murine TIM-3 extracellular domain …; assay: ELISA, coated mouse TIM-3 ECD protein, 6.6667 nM antibody

Binder	Mean fluorescence intensity [1]	OD450 [2]	OD450 [3]	OD450 [4]
B1	44	0.32	0.21	0.31
B2	35.4	0.29	0.24	0.44
B3	42.3	0.25	0.23	0.41
